# Test results reported in patent US20050014931A1 (ABGENIX, published 2005).
# Molecular target: T1, Tetanus toxoid (UniProt P04958 2-1315)
# T1 construct: also called TT
# Test: ELISA screen of hybridoma supernatants
# T1 sequence (P04958 2-457 limits assumed, chain 1 of 2): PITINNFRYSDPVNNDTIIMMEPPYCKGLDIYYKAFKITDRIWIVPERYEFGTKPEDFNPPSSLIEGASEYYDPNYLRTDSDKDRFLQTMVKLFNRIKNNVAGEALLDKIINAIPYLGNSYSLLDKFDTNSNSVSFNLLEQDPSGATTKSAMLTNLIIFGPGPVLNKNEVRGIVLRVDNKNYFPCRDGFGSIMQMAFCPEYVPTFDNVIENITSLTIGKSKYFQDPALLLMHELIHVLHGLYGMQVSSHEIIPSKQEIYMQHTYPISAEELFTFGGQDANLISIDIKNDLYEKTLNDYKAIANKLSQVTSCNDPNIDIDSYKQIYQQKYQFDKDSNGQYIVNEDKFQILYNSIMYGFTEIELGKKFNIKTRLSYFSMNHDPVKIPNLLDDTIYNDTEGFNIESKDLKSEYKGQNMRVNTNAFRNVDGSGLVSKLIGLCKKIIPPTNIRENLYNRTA
# T1 sequence (P04958 458-1315 limits assumed, chain 2 of 2): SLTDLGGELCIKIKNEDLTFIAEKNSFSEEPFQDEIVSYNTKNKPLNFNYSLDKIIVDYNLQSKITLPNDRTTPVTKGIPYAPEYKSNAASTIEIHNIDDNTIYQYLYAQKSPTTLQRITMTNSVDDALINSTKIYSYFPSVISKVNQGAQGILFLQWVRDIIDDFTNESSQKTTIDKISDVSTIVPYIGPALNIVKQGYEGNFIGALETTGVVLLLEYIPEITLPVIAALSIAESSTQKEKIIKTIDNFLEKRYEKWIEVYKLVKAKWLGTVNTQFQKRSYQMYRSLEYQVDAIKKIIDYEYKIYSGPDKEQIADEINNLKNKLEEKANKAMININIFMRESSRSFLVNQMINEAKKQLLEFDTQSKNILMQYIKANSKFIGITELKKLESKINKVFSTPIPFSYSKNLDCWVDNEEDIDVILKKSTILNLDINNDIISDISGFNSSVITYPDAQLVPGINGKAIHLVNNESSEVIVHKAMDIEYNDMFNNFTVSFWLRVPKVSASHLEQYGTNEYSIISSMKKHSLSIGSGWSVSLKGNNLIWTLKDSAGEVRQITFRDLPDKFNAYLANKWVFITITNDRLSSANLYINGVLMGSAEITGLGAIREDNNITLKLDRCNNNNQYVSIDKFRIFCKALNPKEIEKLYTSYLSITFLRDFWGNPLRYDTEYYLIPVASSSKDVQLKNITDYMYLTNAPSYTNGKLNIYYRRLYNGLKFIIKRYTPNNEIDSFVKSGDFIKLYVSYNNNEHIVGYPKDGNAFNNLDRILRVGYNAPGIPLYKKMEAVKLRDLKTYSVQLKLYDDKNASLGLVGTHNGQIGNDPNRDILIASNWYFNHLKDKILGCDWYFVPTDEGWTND
row,Binder,binding result
1,"Mab 1F10/7C5 (antibody, V domains shown, also called Mab 7C5) VH: not shown VL: DIELTQSPLSLPVTLGQPASISCRSSQSLVYSDGNTYLNWFQQRPGQSPRRLIYKVSNWDSGVPDRFSGSGSGTDFTLKISRVEAEDVGVYYCMQGTHWPRTFGQGTKVEIKR",no binding
2,"Mab 1A2 (antibody, V domains shown) VH: not shown VL: DIELTQSPDFQSVTPKEKVTITCRASQSIGSSLHWYQQKPDQSPKLLIKYASQSFSGVPSRFSGSGSGTDFTLTINSLEAEDAATYYCHQSSSLPRTFGQGTKVEIKR",no binding
